# In patent publication US20030232387A1:
# Tests used:
# [1] = target: E-cadherin-IgG fusion protein (human) (UniProt P12830); assay: cell adhesion assay; buffer with EDTA (5 mM)
# [2] = target: E-cadherin-IgG fusion protein (human) (UniProt P12830); assay: cell adhesion assay; buffer with Ca^2+ and Mg^2+ (1 mM each)
# [3] = target: E-cadherin-IgG fusion protein (human) (UniProt P12830); assay: cell adhesion assay; buffer with Ca^2+, Mg^2+ and Mn^2+ (1 mM each)
# [4] = target: human αEβ7 integrin expressed on cells (human) (UniProt P38570); assay: staining of K562 αEβ7 cells, 10 µg/ml; Ca^2+ and Mg^2+ (1 mM each)
# Sequence of human αEβ7 integrin expressed on cells (human) (P38570 other isoform, or with tags, fused parts or gaps limits assumed, chain 1 of 2): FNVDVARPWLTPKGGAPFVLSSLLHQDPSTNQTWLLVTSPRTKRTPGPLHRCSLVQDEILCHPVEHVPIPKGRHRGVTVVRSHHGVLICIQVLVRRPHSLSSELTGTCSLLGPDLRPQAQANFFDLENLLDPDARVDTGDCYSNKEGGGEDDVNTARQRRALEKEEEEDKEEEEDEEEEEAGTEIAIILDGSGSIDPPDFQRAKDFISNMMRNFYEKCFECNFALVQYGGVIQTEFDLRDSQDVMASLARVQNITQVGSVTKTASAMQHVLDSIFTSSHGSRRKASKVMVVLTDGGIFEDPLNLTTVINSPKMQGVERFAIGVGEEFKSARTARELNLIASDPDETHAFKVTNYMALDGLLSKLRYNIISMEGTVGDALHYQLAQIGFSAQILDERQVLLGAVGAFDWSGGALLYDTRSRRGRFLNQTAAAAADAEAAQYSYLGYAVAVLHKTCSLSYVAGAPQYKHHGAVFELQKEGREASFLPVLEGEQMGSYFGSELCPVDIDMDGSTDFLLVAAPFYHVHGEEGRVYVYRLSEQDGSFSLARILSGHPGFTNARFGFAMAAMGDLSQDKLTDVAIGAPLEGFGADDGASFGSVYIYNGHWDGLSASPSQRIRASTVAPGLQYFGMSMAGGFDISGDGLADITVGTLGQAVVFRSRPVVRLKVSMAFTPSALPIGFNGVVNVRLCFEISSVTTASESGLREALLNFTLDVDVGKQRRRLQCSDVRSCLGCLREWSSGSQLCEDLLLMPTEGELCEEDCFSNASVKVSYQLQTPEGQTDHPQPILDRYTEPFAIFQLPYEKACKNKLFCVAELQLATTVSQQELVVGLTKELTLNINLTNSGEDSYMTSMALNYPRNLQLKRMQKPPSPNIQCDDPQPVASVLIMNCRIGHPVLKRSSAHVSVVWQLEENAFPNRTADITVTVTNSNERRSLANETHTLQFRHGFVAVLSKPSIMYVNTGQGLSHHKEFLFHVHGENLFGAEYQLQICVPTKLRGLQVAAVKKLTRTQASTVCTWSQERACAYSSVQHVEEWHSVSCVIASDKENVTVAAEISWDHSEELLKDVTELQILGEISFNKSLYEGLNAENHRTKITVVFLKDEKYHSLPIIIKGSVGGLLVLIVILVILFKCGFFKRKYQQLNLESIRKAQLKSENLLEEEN
# Sequence of human αEβ7 integrin expressed on cells (human) (chain, as listed by the source limits assumed, chain 2 of 2): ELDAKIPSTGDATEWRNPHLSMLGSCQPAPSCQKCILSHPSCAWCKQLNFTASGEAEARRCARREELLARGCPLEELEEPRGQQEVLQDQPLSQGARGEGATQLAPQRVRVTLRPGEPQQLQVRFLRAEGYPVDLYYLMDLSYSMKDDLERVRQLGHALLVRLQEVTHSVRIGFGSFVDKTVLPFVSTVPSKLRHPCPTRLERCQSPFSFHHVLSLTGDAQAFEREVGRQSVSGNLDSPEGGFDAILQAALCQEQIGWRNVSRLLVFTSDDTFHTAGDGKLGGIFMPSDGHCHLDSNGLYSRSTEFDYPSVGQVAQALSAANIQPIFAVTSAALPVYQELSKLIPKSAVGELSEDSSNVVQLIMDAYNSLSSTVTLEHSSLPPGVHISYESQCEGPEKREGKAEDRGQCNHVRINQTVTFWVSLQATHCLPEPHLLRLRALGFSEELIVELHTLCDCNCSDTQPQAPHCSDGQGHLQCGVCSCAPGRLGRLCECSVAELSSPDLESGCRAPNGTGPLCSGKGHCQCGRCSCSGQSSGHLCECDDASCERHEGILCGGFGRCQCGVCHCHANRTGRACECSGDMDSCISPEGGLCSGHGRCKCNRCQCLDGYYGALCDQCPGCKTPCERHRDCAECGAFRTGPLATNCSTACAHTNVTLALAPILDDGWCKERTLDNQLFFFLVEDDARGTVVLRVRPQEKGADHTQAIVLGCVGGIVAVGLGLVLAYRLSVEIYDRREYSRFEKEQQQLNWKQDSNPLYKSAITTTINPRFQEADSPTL
# [5] = target: human αEβ7 integrin expressed on cells (human) (UniProt P38570); assay: staining of K562 αEβ7 cells, 2.5 µg/ml; Ca^2+ and Mg^2+ (1 mM each)
# [6] = target: human αEβ7 integrin expressed on cells (human) (UniProt P38570); assay: staining of K562 αEβ7 cells, 5 µg/ml; Ca^2+, Mg^2+ and Mn^2+ (1 mM each)
Substance,% cells bound to immobilized E-cadherin [1],% cells bound to immobilized E-cadherin [2],% cells bound to immobilized E-cadherin [3],Binding (mean fluorescence intensity) [4],Binding (mean fluorescence intensity) [5],Binding (mean fluorescence intensity) [6]
human αEβ7 integrin expressed on cells (from UniProt P38570 19-1179; P26010 20-798) (receptor),< 10%,40%,60%,–,–,–
E-cadherin-IgG fusion protein (from UniProt P12830 155-699) (Fc fusion),–,–,–,75 MFI,< 25 MFI,100 MFI
